Results from PMC5061712.

Key:
[1] = target: FtsX‐His (full‐length pneumococcal FtsX with a His6 tag) (Streptococcus pneumoniae); test: cross-linking; FtsX‐His and FtsE‐His together in detergent micelles with glutaraldehyde; data not shown
[2] = target: FtsX‐His (full‐length pneumococcal FtsX with a His6 tag) (Streptococcus pneumoniae); test: cross-linking; FtsX‐His (5–10 μmol/L) with glutaraldehyde (0.5–2.0 mmol/L), 30–45 min, room temperature, 50 mmol/L HEPES pH 8.0, 200 mmol/L NaCl, 5% glycerol, 0.02% DDM, 0.02% C12E8; SDS‐PAGE, Coomassie
[3] = target: FtsX‐His (full‐length pneumococcal FtsX with a His6 tag) (Streptococcus pneumoniae); test: densitometry of Coomassie‐stained bands of purified nanodiscs; FtsX‐His reconstituted in MSPE3D1/soybean lipid nanodiscs, purified by Ni‐NTA and SEC; relative intensities of MSPE3D1 and FtsX‐His bands, assuming two MSPE3D1 per nanodisc

stoichiometry N [1]: 2
stoichiometry N [2]: 2
FtsX‐His molecules per nanodisc (molecules per nanodisc) [3]: 1.5
Substance: FtsX‐His (full‐length pneumococcal FtsX with a His6 tag) (natural protein)
